Results reported in patent publication US20100075326A1.
Like-named read-outs stand apart in the source and are kept apart here.

B1: acid coil E5 (five heptad repeats), secreted YS2H prey with C-terminal Myc tag (peptide)
peptide: VSALEKEVSALEKEVSALEKEVSALEKEVSALEKEEQKLISEEDL
modifications: not checked
B2: acid coil E4 (four heptad repeats), secreted YS2H prey with C-terminal Myc tag (peptide)
peptide: VSALEKEVSALEKEVSALEKEVSALEKEEQKLISEEDL
modifications: not checked
B3: acid coil E3 (three heptad repeats), secreted YS2H prey with C-terminal Myc tag (peptide)
peptide: VSALEKEVSALEKEVSALEKEEQKLISEEDL
modifications: not checked

Legend:
[1] = target: T1, base coil K5 (five heptad repeats), YS2H bait fused to Aga2 with C-terminal FLAG tag (yeast); test: predicted from YS2H (flow cytometry of Myc and FLAG tags, Langmuir equation)
[2] = target: T2, base coil K4 (four heptad repeats), YS2H bait fused to Aga2 with C-terminal FLAG tag (yeast); test: as above
[3] = target: T3, base coil K3 (three heptad repeats), YS2H bait fused to Aga2 with C-terminal FLAG tag (yeast); test: as above
[4] = target: T1, base coil K5 (five heptad repeats), …
[5] = target: T2, base coil K4 (four heptad repeats), …
[6] = target: T3, base coil K3 (three heptad repeats), …
[7] = target: NeGFP (partner of the row 'E3' in Figure 2d, base coil deleted, cytosolic)
[8] = target: T3, base coil K3 (three heptad repeats), …; remark: listed apart in the source
[9] = target: T3, base coil K3 (three heptad repeats), …; test: YS2H, Kn-Flag : En-Myc: bait on the yeast surface as Aga2 fusion, secreted prey captured by it; flow cytometry with anti-Myc antibody, MFI of the whole induced population; Flag (bait) MFI of this clone 70; K3-only control Myc MFI 8
[10] = target: T3, base coil K3 (three heptad repeats), …; remark: listed apart in the source

Binder	Kd [1]	Kd [2]	Kd [3]	MFI (anti-Myc) [4]	MFI (anti-Myc) [5]	MFI (anti-Myc) [6]	MFI of complemented split eGFP in the cytosol, control row 'E3' (NeGFP with the base coil deleted : E3-CeGFP) [7]	MFI of complemented split eGFP in the cytosol (K3-NeGFP : E3-CeGFP, no signal sequences) [8]	MFI (anti-Myc) [9]	MFI of complemented split eGFP, secretory pathway (K3-NeGFP-Flag : E3-CeGFP-Myc); Flag MFI 67 [10]
B1	0.49 nM	18.3 nM	1290 nM	1200	653	10				
B2		151 nM			68					
B3			1270 nM				7	216	8	20
